# Values quoted from earlier work, collected in US20110015134A1, “Method of treatment for early stage cancer” (priority 2007, published 2011).
# What was measured:
# [1] = system: wound healing associated tumor growth; conditions: reported in the literature
# [2] = in vivo
# [3] = at any level, at any concentration
# [4] = in vivo; remark: listed apart in the source
compound,measurement,setting,value
COc1ccc2c(c1)c(CC(=O)O)c(C)n2C(=O)c1ccc(Cl)cc1 [Indomethacin],prevention of wound healing associated / surgery induced tumor growth,[1],effective in preventing wound healing associated tumor growth
O=S1(=O)CCN(CN2CCS(=O)(=O)NC2)CN1 [Taurolidine],prevention of wound healing associated / surgery induced tumor growth,[1],can prevent surgery induced tumor growth
Avastin: angiogenesis inhibitor that inhibits VEGF,dose limiting toxicity,[2],some dose limiting toxicity mainly hypertension
Endostatin,toxicity,[3],never been shown to exhibit toxicity at any level at any concentration
same,half-life,[4],half-life is short
